Measured values taken from publication doi:10.1101/2021.03.11.435015.

Biological target: Myc-PUM1-R1147W (human) (UniProt Q14671)
Assay: co-IP

GST-CNOT1 (from UniProt A5YKK6 1-2376) (natural protein)
percent by which the interaction is diminished against Myc-PUM1-WT: 35%
